Experimental data: patent US20200087373A1 (UNIVERSITY OF COPENHAGEN, published 2020)
Ends that are not written are not given here. * marks the point of attachment. C16 diacid = O=C(O)CCCCCCCCCCCCCCC(=O)*

B1: AT179 [hGIP(5-30)NH2[Q19K]-C16diacid/19] (peptide)
peptide: TFISDYSIAMDKIHK(C16 diacid)QDFVNWLLAQK-NH2
modifications: N-terminus assumed
SMILES: CC[C@H](C)[C@H](NC(=O)[C@H](CO)NC(=O)[C@H](Cc1ccc(O)cc1)NC(=O)[C@H](CC(=O)O)NC(=O)[C@H](CO)NC(=O)[C@@H](NC(=O)[C@H](Cc1ccccc1)NC(=O)[C@@H](N)[C@@H](C)O)[C@@H](C)CC)C(=O)N[C@@H](C)C(=O)N[C@@H](CCSC)C(=O)N[C@@H](CC(=O)O)C(=O)N[C@@H](CCCCN)C(=O)N[C@H](C(=O)N[C@@H](Cc1c[nH]cn1)C(=O)N[C@@H](CCCCNC(=O)CCCCCCCCCCCCCCC(=O)O)C(=O)N[C@@H](CCC(N)=O)C(=O)N[C@@H](CC(=O)O)C(=O)N[C@@H](Cc1ccccc1)C(=O)N[C@H](C(=O)N[C@@H](CC(N)=O)C(=O)N[C@@H](Cc1c[nH]c2ccccc12)C(=O)N[C@@H](CC(C)C)C(=O)N[C@@H](CC(C)C)C(=O)N[C@@H](C)C(=O)N[C@@H](CCC(N)=O)C(=O)N[C@@H](CCCCN)C(N)=O)C(C)C)[C@@H](C)CC
B2: AT181 [hGIP(5-30)NH2[D21K]-C16diacid/21] (peptide)
peptide: TFISDYSIAMDKIHQQK(C16 diacid)FVNWLLAQK-NH2
modifications: N-terminus assumed
SMILES: CC[C@H](C)[C@H](NC(=O)[C@H](CO)NC(=O)[C@H](Cc1ccc(O)cc1)NC(=O)[C@H](CC(=O)O)NC(=O)[C@H](CO)NC(=O)[C@@H](NC(=O)[C@H](Cc1ccccc1)NC(=O)[C@@H](N)[C@@H](C)O)[C@@H](C)CC)C(=O)N[C@@H](C)C(=O)N[C@@H](CCSC)C(=O)N[C@@H](CC(=O)O)C(=O)N[C@@H](CCCCN)C(=O)N[C@H](C(=O)N[C@@H](Cc1c[nH]cn1)C(=O)N[C@@H](CCC(N)=O)C(=O)N[C@@H](CCC(N)=O)C(=O)N[C@@H](CCCCNC(=O)CCCCCCCCCCCCCCC(=O)O)C(=O)N[C@@H](Cc1ccccc1)C(=O)N[C@H](C(=O)N[C@@H](CC(N)=O)C(=O)N[C@@H](Cc1c[nH]c2ccccc12)C(=O)N[C@@H](CC(C)C)C(=O)N[C@@H](CC(C)C)C(=O)N[C@@H](C)C(=O)N[C@@H](CCC(N)=O)C(=O)N[C@@H](CCCCN)C(N)=O)C(C)C)[C@@H](C)CC
B3: AT180 [hGIP(5-30)NH2[Q20K]-C16diacid/20] (peptide)
peptide: TFISDYSIAMDKIHQK(C16 diacid)DFVNWLLAQK-NH2
modifications: N-terminus assumed
SMILES: CC[C@H](C)[C@H](NC(=O)[C@H](CO)NC(=O)[C@H](Cc1ccc(O)cc1)NC(=O)[C@H](CC(=O)O)NC(=O)[C@H](CO)NC(=O)[C@@H](NC(=O)[C@H](Cc1ccccc1)NC(=O)[C@@H](N)[C@@H](C)O)[C@@H](C)CC)C(=O)N[C@@H](C)C(=O)N[C@@H](CCSC)C(=O)N[C@@H](CC(=O)O)C(=O)N[C@@H](CCCCN)C(=O)N[C@H](C(=O)N[C@@H](Cc1c[nH]cn1)C(=O)N[C@@H](CCC(N)=O)C(=O)N[C@@H](CCCCNC(=O)CCCCCCCCCCCCCCC(=O)O)C(=O)N[C@@H](CC(=O)O)C(=O)N[C@@H](Cc1ccccc1)C(=O)N[C@H](C(=O)N[C@@H](CC(N)=O)C(=O)N[C@@H](Cc1c[nH]c2ccccc12)C(=O)N[C@@H](CC(C)C)C(=O)N[C@@H](CC(C)C)C(=O)N[C@@H](C)C(=O)N[C@@H](CCC(N)=O)C(=O)N[C@@H](CCCCN)C(N)=O)C(C)C)[C@@H](C)CC

How the values were obtained:
human GIP receptor [1] = biological target: T1, human GIP receptor (human, UniProt P48546 22-466); test: 125I-hGIP competition binding, COS-7 cells expressing hGIPR;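 also: nonspecific binding taken as radioligand bound by untransfected cells, binding buffer with or without 2% HSA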
T1 construct: whole, on cells; also called hGIPR
T1 sequence (looked up): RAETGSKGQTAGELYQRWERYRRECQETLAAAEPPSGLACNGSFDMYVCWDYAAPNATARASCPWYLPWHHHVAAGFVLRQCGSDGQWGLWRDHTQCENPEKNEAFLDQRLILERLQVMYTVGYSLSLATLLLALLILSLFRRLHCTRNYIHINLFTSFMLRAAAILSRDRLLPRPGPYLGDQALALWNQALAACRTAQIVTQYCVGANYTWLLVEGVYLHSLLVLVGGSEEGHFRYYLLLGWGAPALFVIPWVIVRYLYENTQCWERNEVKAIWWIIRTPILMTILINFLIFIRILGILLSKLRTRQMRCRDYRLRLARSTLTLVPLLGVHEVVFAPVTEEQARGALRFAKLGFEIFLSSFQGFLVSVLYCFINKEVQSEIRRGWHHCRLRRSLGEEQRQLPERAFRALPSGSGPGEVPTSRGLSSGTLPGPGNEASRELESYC
Experimental: (§1) After incubation, the cells were washed twice in ice-cold binding buffer (+/−2% HSA) and lysed using 200 mM NaOH with 1% SDS for 30 min. Nonspecific binding was determined as the binding of radioactive ligand to untransfected cells.

human GIP receptor [2] = biological target: T1, human GIP receptor; test: 125I-hGIP competition binding, COS-7/hGIPR, 0.1% casein;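 also: nonspecific binding defined as radioligand binding measured on untransfected cells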
Experimental: as §1

human GIP receptor [3] = biological target: T1, human GIP receptor; test: IC50 with 2% HSA over IC50 with 0.1% casein, 125I-hGIP competition, COS-7/hGIPR
Experimental: as §1

human GIP receptor [4] = biological target: T1, human GIP receptor; test: 125I-hGIP competition binding, COS-7/hGIPR, 2% HSA;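 also: nonspecific binding defined as radioligand binding to untransfected cells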
Experimental: as §1

human GIP receptor [5] = biological target: T1, human GIP receptor; test: cell-based or functional assay

Row | Binder | IC50 (human GIP receptor [1]) | log IC50 (human GIP receptor [1]) | IC50 (human GIP receptor [2]) | logIC50 (human GIP receptor [2]) | Fold change HSA (2%)/Casein (0.1%) (human GIP receptor [3]) | IC50 (human GIP receptor [4]) | logIC50 (human GIP receptor [4]) | cAMP agonism (human GIP receptor [5]) | cAMP agonism, EC50 (log) (human GIP receptor [5]) | cAMP agonism, Emax (human GIP receptor [5]) | cAMP antagonism (human GIP receptor [5]) | cAMP antagonism, log (human GIP receptor [5])
1 | B1 | 453 nM | -6.3 log M | 10.5 nM | -7.98 log M | 3.6 fold | 38 nM | -7.42 log M | 89 nM | -7 log M | 32 | 89 nM | -7.1 log M
2 | B2 | 48 nM | -7.3 log M | 105 nM | -7 log M | 5.2 fold | 550 nM | -6.3 log M | 2 nM | -9 log M | 9 | 16 nM | -7.8 log M
3 | B3 | 106 nM | -7 log M | 457 nM | -6.3 log M | 3.7 fold | 1700 nM | -5.8 log M | – | – | 0 | 37 nM | -7.4 log M
